The source of these data is article PMC3975076, “High-throughput binding characterization of RNA aptamer selections using a microplate-based multiplex microcolumn device”.

One data set concerns the target T1, UBLCP1 (UniProt Q8WVY7).
T1 sequence: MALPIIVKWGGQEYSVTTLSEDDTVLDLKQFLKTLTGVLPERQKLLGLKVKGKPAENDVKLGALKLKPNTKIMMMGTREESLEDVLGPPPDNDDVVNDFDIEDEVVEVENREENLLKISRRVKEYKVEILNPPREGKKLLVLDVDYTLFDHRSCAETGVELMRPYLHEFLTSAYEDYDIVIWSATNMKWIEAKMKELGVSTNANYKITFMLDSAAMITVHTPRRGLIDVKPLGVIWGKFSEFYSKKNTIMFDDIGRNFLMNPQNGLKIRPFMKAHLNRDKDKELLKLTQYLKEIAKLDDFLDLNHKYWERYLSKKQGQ
Briefly: affinity microcolumn + qPCR. The settings on record: value is average over all 7 other targets; Binding buffer (composition, pH and temperature not in material) with 10 ug/mL yeast tRNA; serial: 4.75 nM N70 library + 50 pM each aptamer/BBS, 1 mL, protein ….

The next data set concerns the target GFP (UniProt P42212). Briefly: affinity microcolumn + qPCR. The settings on record: GFP 0.6 ug/uL resin; serial; Binding buffer (composition, pH and temperature not in material) with 10 ug/mL yeast tRNA; serial: 4.75 nM N70 library + 50 pM each aptamer/BBS, 1 mL, protein ….
A further data set has as its target T2, NELF-E (Drosophila, UniProt P92204 1-280).
T2 sequence: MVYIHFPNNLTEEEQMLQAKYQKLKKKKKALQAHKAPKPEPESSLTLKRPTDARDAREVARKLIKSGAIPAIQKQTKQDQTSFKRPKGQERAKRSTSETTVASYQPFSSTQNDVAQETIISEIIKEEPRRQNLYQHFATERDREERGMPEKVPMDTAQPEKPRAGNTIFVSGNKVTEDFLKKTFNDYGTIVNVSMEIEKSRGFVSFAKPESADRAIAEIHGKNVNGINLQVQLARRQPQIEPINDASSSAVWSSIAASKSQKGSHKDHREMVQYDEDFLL
The experiment in a line: affinity microcolumn + qPCR; NELF-E 0.6 ug/uL resin; serial; Binding buffer (composition, pH and temperature not in material) with 10 ug/mL yeast tRNA; serial: 4.75 nM N70 library + 50 pM each aptamer/BBS, 1 mL, protein 0.6 ug/uL resin; wash 3 mL at 300 uL/min. To be noted: protein: recombinant; tags: His6.

With “AGCUUCUGGACUGCGAUGGGAGCACGAAACGUCGUGGCGCAAUUGGGUGGGGAAAGUCCUUAAAAGAGGGCCACCACAGAAGCU [GFPapt (AP3-1)]”, the binding signal (fold enrichment over N70 library) amounted to 0.6 with UBLCP1 and 750 with GFP.

With “GGGAAUGGAUCCACAUCUACGAAUUCAAUCAAGUCCCCAGACUCAGCAACACUGGACAGCGAUAUGCAGAUAACCAAGACCAAUUCACUCCAGUUCACUGCAGACUUGACGAAGCUU [HSFapt]”, in the data set with UBLCP1, the binding signal (fold enrichment over N70 library) is 2. Same read-out and setting: the result for “GGGAAUGGAUCCACAUCUACGAAUUCCCAACGACUGCCGAGCGAGAUUACGCUUGAGCGCCCCACUGAGGAUGCCCACGGGCGAUUGGGGCACGGCUUCACUGCAGACUUGACGAAGCUU [NELFapt]” reads 1.6.

B1: NELFapt (structured_RNA)
RNA: GGGAAUGGAUCCACAUCUACGAAUUCCCAACGACUGCCGAGCGAGAUUACGCUUGAGCGCCCCACUGAGGAUGCCCACGGGCGAUUGGGGCACGGCUUCACUGCAGACUUGACGAAGCUU
On to B1, for which the binding signal with NELF-E is 262 fold enrichment over N70 library.
